# T1: NgR1 (Nogo receptor; full-length, N-terminally myc-tagged rat NgR) (rat, UniProt Q99M75 26-447)
# T1 construct: GPI-linked; Expressed on COS-7 cells, in HEK293T cells (co-IP) and by adenovirus in rat DRG neurons; the tag is stated only for the COS-7 construct; also called myc-NgR[Pro26-Cys473]
# T1 sequence: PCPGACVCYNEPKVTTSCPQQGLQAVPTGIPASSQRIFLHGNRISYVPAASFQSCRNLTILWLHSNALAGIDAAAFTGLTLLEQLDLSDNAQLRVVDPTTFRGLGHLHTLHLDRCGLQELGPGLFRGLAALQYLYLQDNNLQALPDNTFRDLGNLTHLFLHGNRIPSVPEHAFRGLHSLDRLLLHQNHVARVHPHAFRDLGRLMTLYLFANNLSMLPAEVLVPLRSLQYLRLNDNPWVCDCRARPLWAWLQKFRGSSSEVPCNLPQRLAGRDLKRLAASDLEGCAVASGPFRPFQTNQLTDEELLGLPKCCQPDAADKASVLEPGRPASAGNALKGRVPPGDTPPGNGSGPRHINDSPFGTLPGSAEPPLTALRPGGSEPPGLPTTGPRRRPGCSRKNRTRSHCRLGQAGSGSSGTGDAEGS
# T2: NgR2 (full-length, N-terminally myc-tagged rat NgR2) (rat, UniProt Q80WD1 30-390)
# T2 construct: also called myc-NgR2[Ser30-Leu420]
# T2 sequence: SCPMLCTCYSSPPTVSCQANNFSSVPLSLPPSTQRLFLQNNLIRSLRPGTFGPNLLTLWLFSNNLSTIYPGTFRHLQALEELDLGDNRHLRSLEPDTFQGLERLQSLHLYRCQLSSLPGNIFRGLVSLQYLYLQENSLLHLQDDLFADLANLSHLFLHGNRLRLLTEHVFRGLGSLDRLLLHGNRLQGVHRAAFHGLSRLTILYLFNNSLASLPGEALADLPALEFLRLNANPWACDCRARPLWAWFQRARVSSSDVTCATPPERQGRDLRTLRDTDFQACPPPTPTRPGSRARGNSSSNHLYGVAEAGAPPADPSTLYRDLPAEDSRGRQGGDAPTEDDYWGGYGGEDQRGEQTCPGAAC
# T3: NgR3 (full-length, N-terminally myc-tagged rat NgR3) (rat, UniProt Q80WD0 24-424)
# T3 construct: also called myc-NgR3[Gly24-Arg445]
# T3 sequence: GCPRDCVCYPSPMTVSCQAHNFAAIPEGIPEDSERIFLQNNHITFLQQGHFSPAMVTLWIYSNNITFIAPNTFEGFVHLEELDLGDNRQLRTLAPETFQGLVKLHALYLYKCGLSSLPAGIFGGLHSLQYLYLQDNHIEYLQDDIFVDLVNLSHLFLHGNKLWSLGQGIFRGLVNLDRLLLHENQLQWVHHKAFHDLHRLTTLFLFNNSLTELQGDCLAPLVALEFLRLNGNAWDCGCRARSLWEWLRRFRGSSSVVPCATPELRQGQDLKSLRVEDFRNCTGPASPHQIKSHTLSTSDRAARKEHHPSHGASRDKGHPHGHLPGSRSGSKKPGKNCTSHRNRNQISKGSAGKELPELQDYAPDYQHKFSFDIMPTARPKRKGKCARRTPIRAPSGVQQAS
# B1: AP-sNgR^C-term (LRRCT domain together with the unique domain of NgR, residues 261-445, AP fusion) (receptor)
# chain: PWVCDCRARPLWAWLQKFRGSSSEVPCNLPQRLAGRDLKRLAASDLEGCAVASGPFRPFQTNQLTDEELLGLPKCCQPDAADKASVLEPGRPASAGNALKGRVPPGDTPPGNGSGPRHINDSPFGTLPGSAEPPLTALRPGGSEPPGLPTTGPRRRPGCSRKNRTRSHCRLGQAGSGSSGTGDAE
# notes: Soluble, made in HEK293T cells; also called AP-sNgRCTu [Pro261-Glu445]; AP-NgR^C-term; not shown: alkaline phosphatase (AP) tag
# How the values were obtained:
# [1] = biological target: NgR2 (full-length, N-terminally myc-tagged rat NgR2) (rat) (UniProt Q80WD1); assay: MAG-Fc binding to NgR2 expressing COS-7 cells
# [2] = biological target: NgR2 (full-length, N-terminally myc-tagged rat NgR2) (rat) (UniProt Q80WD1); assay: Scatchard plot analysis, MAG-Fc on NgR2 expressing COS-7 cells
# [3] = biological target: NgR2 (full-length, N-terminally myc-tagged rat NgR2) (rat) (UniProt Q80WD1); assay: MAG-Fc binding to transfected COS-7 cells, direct comparison with NgR
# [4] = biological target: NgR2 (full-length, N-terminally myc-tagged rat NgR2) (rat) (UniProt Q80WD1); assay: estimated from the 5 fold comparison on COS-7 cells and the literature Kd of MAG-Fc/NgR
# [5] = biological target: T1, NgR1 (Nogo receptor; full-length, …); assay: AP-ligand binding to transfected COS-7 cells
# [6] = biological target: T2, NgR2 (full-length, N-terminally …); assay: AP-ligand binding to transfected COS-7 cells
# [7] = biological target: T3, NgR3 (full-length, N-terminally …); assay: AP-ligand binding to transfected COS-7 cells
Molecule,concentration at which binding saturates [1] [nM],Kd [2] [nM],fold tighter binding than to NgR [3] [fold],Kd [4] [nM],binding result [5],binding result [6],binding result [7]
MAG-Fc (MAG ectodomain fused to the Fc fragment of human immunoglobulin) (Fc fusion),5 to 10,2,5,1 to 2,–,–,–
B1,–,–,–,–,no binding,no binding,no binding
